B1: PDGFRβ 890-898 peptide ILLWEIFTL (peptide)
peptide: ILLWEIFTL
notes: Synthetic peptide (Fmoc), >96% pure; also called PDGFRβ (891)

Target: T1, HLA-A2 complexes expressed by T2 cells (human)
T1 construct: whole, on cells; also called HLA-A2.1 class I molecule
Experiment: T2 class I stabilization assay, flow cytometry

Binding result, binds:
ILGVLTSLV (Synthetic peptide (Fmoc), >96% pure) [DLK1 310-318 peptide ILGVLTSLV]
TLFWLLLTL (Synthetic peptide (Fmoc), >96% pure) [VEGFR1 770-778 peptide TLFWLLLTL]
LAALPHSCL (Synthetic peptide (Fmoc), >96% pure) [RGS5 5-13 peptide LAALPHSCL]
RLLGNVLVCV (Synthetic peptide (Fmoc), >96% pure) [HBB 105-114 peptide RLLGNVLVCV]
B1
TLSNLSFPV (Synthetic peptide (Fmoc), >96% pure) [NG2 770-778 peptide TLSNLSFPV]
RLTPGVHEL (Synthetic peptide (Fmoc), >96% pure) [DLK1 269-277 peptide RLTPGVHEL]
LILPLLFYL (Synthetic peptide (Fmoc), >96% pure) [NG2 2238-2246 peptide LILPLLFYL]
VIAMFFWLL (Synthetic peptide (Fmoc), >96% pure) [VEGFR2 773-781 peptide VIAMFFWLL]
YLQVDLRFL (Synthetic peptide (Fmoc), >96% pure) [NRP2 328-336 peptide YLQVDLRFL]
RLLVVYPWT (Synthetic peptide (Fmoc), >96% pure) [HBB 31-39 peptide RLLVVYPWT]
GLLRFVTAV (Synthetic peptide (Fmoc), >96% pure) [NRP1 331-339 peptide GLLRFVTAV]
TLADFDPRV (Synthetic peptide (Fmoc), >96% pure) [EphA2 883-891 peptide TLADFDPRV]
LLVPTCVFLV (Synthetic peptide (Fmoc), >96% pure) [TEM1 691-700 peptide LLVPTCVFLV]
FLNKCETWV (Synthetic peptide (Fmoc), >96% pure) [DLK1 326-334 peptide FLNKCETWV]
GMLGMVSGL (Synthetic peptide (Fmoc), >96% pure) [NRP1 433-441 peptide GMLGMVSGL]
NMLGMLSGL (Synthetic peptide (Fmoc), >96% pure) [NRP2 436-444 peptide NMLGMLSGL]
VLLGAVCGV (Synthetic peptide (Fmoc), >96% pure) [NRP1 869-877 peptide VLLGAVCGV]
DIWDGIPHV (Synthetic peptide (Fmoc), >96% pure) [NRP2 214-222 peptide DIWDGIPHV]

From patent US20160220651A1 (UNIVERSITY OF PITTSBURGH OF THE COMMONWEALTH SYSTEM OF …, published 2016)
